Reference: patent publication US20060269550A1
Where no end group is shown, it is not given here. The star is where a group is joined. Octanoyl = CCCCCCCC(=O)*

B1: des-acyl-hGhrelin, full-length, non-acylated human ghrelin (peptide)
peptide: GSSFLSPEHQRVQQRKESKKPPAKLQPR
B2: hGhrelin-His9-acylated (peptide)
peptide: GSSFLSPEH(Octanoyl)QRVQQRKESKKPPAKLQPR

What was measured:
anti-hGhrelin Fab 2291 [1] = assay: competitive ELISA; competitor at 5 µg/ml preincubated with Fab 2291 0.1 µg/ml, OD of Fab bound to BSA-hGhrelin wells
anti-hGhrelin Fab 2291 [2] = assay: competitive ELISA; competitor at 1 µg/ml preincubated with Fab 2291 0.1 µg/ml, OD of Fab bound to BSA-hGhrelin wells
anti-hGhrelin Fab 2291 [3] = assay: competitive ELISA; competitor at 0.2 µg/ml preincubated with Fab 2291 0.1 µg/ml, OD of Fab bound to BSA-hGhrelin wells

anti-hGhrelin Fab 2291, sequence (VH, as listed by the source, chain 1 of 2): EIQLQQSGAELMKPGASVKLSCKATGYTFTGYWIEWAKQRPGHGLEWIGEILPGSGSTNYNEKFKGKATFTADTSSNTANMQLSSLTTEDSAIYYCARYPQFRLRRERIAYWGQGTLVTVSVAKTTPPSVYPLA
anti-hGhrelin Fab 2291, sequence (VL, as listed by the source, chain 2 of 2): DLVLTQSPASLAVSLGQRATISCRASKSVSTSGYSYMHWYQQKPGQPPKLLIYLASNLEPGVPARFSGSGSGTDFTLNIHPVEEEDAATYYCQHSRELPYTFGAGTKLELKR

Binder	Ave. OD (490 nm) (anti-hGhrelin Fab 2291 [1])	Ave. OD (490 nm) (anti-hGhrelin Fab 2291 [2])	Ave. OD (490 nm) (anti-hGhrelin Fab 2291 [3])
B1	0.729 OD (490 nm)	0.663 OD (490 nm)	0.633 OD (490 nm)
B2	0.702 OD (490 nm)	0.69 OD (490 nm)	0.607 OD (490 nm)
